B1: HSDI7B12 (protein, UniProt Q53GQ0 1-312, looked up)
Very-long-chain 3-oxoacyl-CoA …: MESALPAAGFLYWVGAGTVAYLALRISYSLFTALRVWGVGNEAGVGPGLGEWAVVTGSTDGIGKSYAEELAKHGMKVVLISRSKDKLDQVSSEIKEKFKVETRTIAVDFASEDIYDKIKTGLAGLEIGILVNNVGMSYEYPEYFLDVPDLDNVIKKMININILSVCKMTQLVLPGMVERSKGAILNISSGSGMLPVPLLTIYSATKTFVDFFSQCLHEEYRSKGVFVQSVLPYFVATKLAKIRKPTLDKPSPETFVKSAIKTVGLQSRTNGYLIHALMGSIISNLPSWIYLKIVMNMNKSTRAHYLKKTKKN
B2: DDOST (protein)
chain: SGPRTLVLLDNLNVRETHSLFFRSLKDRGFELTFKTADDPSLSLIKYGEFLYDNLIIFSPSVEDFGGNINVETISAFIDGGGSVLVAASSDIGDPLRELGSECGIEFDEEKTAVIDHHNYDISDLGQHTLIVADTENLLKAPTIVGKSSLNPILFRGVGMVADPDNPLVLDILTGSSTSYSFFPDKPITQYPHAVGKNTLLIAGLQARNNARVIFSGSLDFFSDSFFNSAVQKAAPGSQRYSQTGNYELAVALSRWVFKEEGVLRVGPVSHHRVGETAPPNAYTVTDLVEYSIVIQQLSNGKWVPFDGDDIQLEFVRIDPFVRTFLKKKGGKYSVQFKLPDVYGVFQFKVDYNRLGYTHLYSSTQVSVRPLQHTQYERFIPSAYPYYASAFSMMLGLFIFSIVFLHMKEKEKSD
B3: SEC61A2 (protein)
chain: MGIKFLEVIKPFCAVLPEIQKPERKIQFREKVLWTAITLFIFLVCCQIPLFGIMSSDSADPFYWMRVILASNRGTLMELGISPIVTSGLIMQLLAGAKIIEVGDTPKDRALFNGAQKLFGMIITIGQAIVYVMTGMYGDPAEMGAGICLLIIIQLFVAGLIVLLLDELLQKGYGLGSGISLFIATNICETIVWKAFSPTTINTGRGTEFEGAVIALFHLLATRTDKVRALREAFYRQNLPNLMNLIATVFVFAVVIYFQGFRVDLPIKSARYRGQYSSYPIKLFYTSNIPIILQSALVSNLYVISQMLSVRFSGNFLVNLLGQWADVSGGGPARSYPVGGLCYYLSPPESMGAIFEDPVHVVVYIIFMLGSCAFFSKTWIEVSGSSAKDVAKQLKEQQMVMRGHRDTSMVHELNRYIPTAAAFGGLCIGALSVLADFLGAIGSGTGILLAVTIIYQYFEIFVKEQAEVGGMGALFF
B4: CANX (protein)
chain: HDGHDDDVIDIEDDLDDVIEEVEDSKPDTTAPPSSPKVTYKAPVPTGEVYFADSFDRGTLSGWILSKAKKDDTDDEIAKYDGKWEVEEMKESKLPGDKGLVLMSRAKHHAISAKLNKPFLFDTKPLIVQYEVNFQNGIECGGAYVKLLSKTPELNLDQFHDKTPYTIMFGPDKCGEDYKLHFIFRHKNPKTGIYEEKHAKRPDADLKTYFTDKKTHLYTLILNPDNSFEILVDQSVVNSGNLLNDMTPPVNPSREIEDPEDRKPEDWDERPKIPDPEAVKPDDWDEDAPAKIPDEEATKPEGWLDDEPEYVPDPDAEKPEDWDEDMDGEWEAPQIANPRCESAPGCGVWQRPVIDNPNYKGKWKPPMIDNPSYQGIWKPRKIPNPDFFEDLEPFRMTPFSAIGLELWSMTSDIFFDNFIICADRRIVDDWANDGWGLKKAADGAAEPGVVGQMIEAAEERPWLWVVYILTVALPVFLVILFCCSGKKQTSGMEYKKTDAPQPDVKEEEEEKEEEKDKGDEEEEGEEKLEEKQKSDAEEDGGTVSQEEEDRKPKAEEDEILNRSPRNRKPRRE
B5: SLC16A11 (protein, UniProt Q8NCK7 1-471, looked up)
Monocarboxylate transporter 11: MPAPQRKHRRGGFSHRCFPTPQTAMTPQPAGPPDGGWGWVVAAAAFAINGLSYGLLRSLGLAFPDLAEHFDRSAQDTAWISALALAVQQAASPVGSALSTRWGARPVVMVGGVLASLGFVFSAFASDLLHLYLGLGLLAGFGWALVFAPALGTLSRYFSRRRVLAVGLALTGNGASSLLLAPALQLLLDTFGWRGALLLLGAITLHLTPCGALLLPLVLPGDPPAPPRSPLAALGLSLFTRRAFSIFALGTALVGGGYFVPYVHLAPHALDRGLGGYGAALVVAVAAMGDAGARLVCGWLADQGWVPLPRLLAVFGALTGLGLWVVGLVPVVGGEESWGGPLLAAAVAYGLSAGSYAPLVFGVLPGLVGVGGVVQATGLVMMLMSLGGLLGPPLSGFLRDETGDFTASFLLSGSLILSGSFIYIGLPRALPSCGPASPPATPPPETGELLPAPQAVLLSPGGPGSTLDTTC
B6: SURF4 (protein)
chain: GQNDLMGTAEDFADQFLRVTKQYLPHVARLCLISTFLEDGIRMWFQWSEQRDYIDTTWNCGYLLASSFVFLNLLGQLTGCVLVLSRNFVQYACFGLFGIIALQTIAYSILWDLKFLMRNLALGGGLLLLLAESRSEGKSMFAGVPTMRESSPKQYMQLGGRVLLVLMFMTLLHFDASFFSIVQNIVGTALMILVAIGFKTKLAALTLVVWLFAINVYFNAFWTIPVYKPMHDFLKYDFFQTMSVIGGLLLVVALGPGGVSMDEKKKEW
B7: HSD17B12 (protein)
chain: B1 Very-long-chain 3-oxoacyl-CoA …
B8: SACM1L (protein)
chain: MATAAYEQLKLHITPEKFYVEACDDGADDVLTIDRVSTEVTLAVKKDVPPSAVTRPIFGILGTIHLVAGNYLIVITKKIKVGEFFSHVVWKATDFDVLSYKKTMLHLTDIQLQDNKTFLAMLNHVLNVDGFYFSTTYDLTHTLQRLSNTSPEFQEMSLLERADQRFVWNGHLLRELSAQPEVHRFALPVLHGFITMHSCSINGKYFDWILISRRSCFRAGVRYYVRGIDSEGHAANFVETEQIVHYNGSKASFVQTRGSIPVFWSQRPNLKYKPLPQISKVANHMDGFQRHFDSQVIIYGKQVIINLINQKGSEKPLEQTFATMVSSLGSGMMRYIAFDFHKECKNMRWDRLSILLDQVAEMQDELSYFLVDSAGQVVANQEGVFRSNCMDCLDRTNVIQSLLARRSLQAQLQRLGVLHVGQKLEEQDEFEKIYKNAWADNANACAKQYAGTGALKTDFTRTGKRTHLGLIMDGWNSMIRYYKNNFSDGFRQDSIDLFLGNYSVDELESHSPLSVPRDWKFLALPIIMVVAFSMCIICLLMAGDTWTETLAYVLFWGVASIGTFFIILYNGKDFVDAPRLVQKEKID
B9: BAG2 (protein)
chain: AQAKINAKANEGRFCRSSSMADRSSRLLESLDQLELRVEALREAATAVEQEKEILLEMIHSIQNSQDMRQISDGEREELNLTANRLMGRTLTVEVSVETIRNPQQQESLKHATRIIDEVVNKFLDDLGNAKSHLMSLYSACSSEVPHGPVDQKFQSIVIGCALEDQKKIKRRLETLLRNIENSDKAIKLLEHSKGAGSKTLQQNAESRFN
B10: TMEM33 (protein)
chain: ADTTPNGPQGAGAVQFMMTNKLDTAMWLSRLFTVYCSALFVLPLLGLHEAASFYQRALLANALTSALRLHQRLPHFQLSRAFLAQALLEDSCHYLLYSLIFVNSYPVTMSIFPVLLFSLLHAATYTKKVLDARGSNSLPLLRSVLDKLSANQQNILKFIACNEIFLMPATVFMLFSGQGSLLQPFIYYRFLTLRYSSRRNPYCRTLFNELRIVVEHIIMKPACPLFVRRLCLQSIAFISRLAPTVP

tested on: SLC16A11; assay: SLC16A11 protein-protein interaction study (immunoprecipitation, quantitative mass spectrometry); design: species or system human; details: enrichment of protein immunoprecipitated from HEK293T cells expressing P2D SLC16A11^REF-V5 vs empty vector control; Blandt-Altman; quantitative mass spectrometry
Description: Alternatively, these variants may result in reduced transport because they disrupt protein-protein interactions responsible for correct SLC16A11 function. To explore this possibility, SLC16A11 was immunoprecipitated from HEK293T cells expressing either REF or T2D risk SLC16A11-V5 or empty vector control and quantitative mass spectrometry was used to define the SLC16A11 interactome.
Another mechanism through which the variants could affect activity is through disruption of protein-protein interactions. To explore this possibility, quantitative mass spectrometry-based protein-protein interaction studies were performed to define the SLC16A11 interactome and evaluate if the T2D risk coding variants alter any interactions.
Beads were then washed once with lysis buffer and three times with wash buffer. After the last wash, residual wash buffer was removed, 10 μL fresh wash buffer was added, and beads were stored at −80° C. until analysis by the Proteomics Platform at the Broad Institute, as detailed in the “Proteomics Methods for SLC16A11 Protein Interaction Studies” below.
The beads from immunopurification were washed once with IP lysis buffer, then three times with PBS, the three different lysates of each replicate were resuspended in 90 uL digestion buffer (2M Urea, 50 mM Tris HCl), 2 ug of sequencing grade trypsin added, 1 hour shaking at 700 rpm. The supernatant was removed and placed in a fresh tube. The beads were then washed twice with 50 uL digestion buffer and combined with the supernatant. The combined supernatants were reduced (2 uL 500 mM DTT, 30 minutes, RT), alkylated (4 uL 500 mM IAA, 45 minutes, dark) and a longer overnight digestion performed: 2 ug (4 uL) trypsin, shake o/n, The samples were then quenched with 20 uL 10% FA and desalted on 10 mg SepPak columns.
Desalted peptides were labelled with iTRAQ reagents according to the manufacturer's instructions (AB Sciex, Foster City, Calif.). Peptides were dissolved in 30 μl of 0.5 M TEAB pH 8.5 solution and labeling reagent was added in 70 ul of ethanol. After 1 h incubation the reaction was stopped with 50 mM Tris/HCl pH 7.5. Differentially labelled peptides were mixed and subsequently desalted on 10 mg SepPak columns.
Reconstituted peptides were separated on an online nanoflow EASY-nLC 1000 UHPLC system (Thermo Fisher Scientific) and analyzed on a benchtop Orbitrap Q Exactive Plus mass spectrometer (Thermo Fisher Scientific). The peptide samples were injected onto a capillary column (Picofrit with 10 μm tip opening/75 μm diameter, New Objective, PF360-75-10-N-5) packed in-house with 20 cm C18 silica material (1.9 μm ReproSil-Pur C18-AQ medium, Dr. Maisch GmbH, r119.aq). The UHPLC setup was connected with a custom-fit microadapting tee (360 μm, IDEX Health & Science, UH-753), and capillary columns were heated to 50° C. in column heater sleeves (Phoenix-ST) to reduce backpressure during UHPLC separation. Injected peptides were separated at a flow rate of 200 nL/min with a linear 80 min gradient from 100% solvent A (3% acetonitrile, 0.1% formic acid) to 30% solvent B (90% acetonitrile, 0.1% formic acid), followed by a linear 6 min gradient from 30% solvent B to 90% solvent B. Each sample was run for 120 min, including sample loading and column equilibration times. The Q Exactive instrument was operated in the data-dependent mode acquiring HCD MS/MS scans (R=17,500) after each MS1 scan (R=70,000) on the 12 top most abundant ions using an MS1 ion target of 3×10^6 ions and an MS2 target of 5×10^4 ions. The maximum ion time utilized for the MS/MS scans was 120 ms; the HCD-normalized collision energy was set to 27; the dynamic exclusion time was set to 20 s, and the peptide match and isotope exclusion functions were enabled.
All mass spectra were processed using the Spectrum Mill software package v6.0 pre-release (Agilent Technologies) which includes modules developed by us for iTRAQ-based quantification. […]

Molecule	B.A. logFC
B1	1.26

same assay, conditions: putative SLC16A11^REF interaction partners; immunoprecipitation from HEK293T cells vs empty vector control; Blandt-Altman

Molecule	BA log fold change
B2	1.65
B3	1.59
B4	1.38
B5	1.34
B6	1.33
B7	1.26
B8	1.26
B9	1.26
B10	1.25
